Reference: patent US20200200750A1 (E AND S HEALTHCARE, published 2020)

Molecular target: T1, human thioredoxin-1 (Trx1) protein (human, UniProt P10599 1-105)
T1 construct: also called naked Trx1; antigen
T1 sequence (looked up): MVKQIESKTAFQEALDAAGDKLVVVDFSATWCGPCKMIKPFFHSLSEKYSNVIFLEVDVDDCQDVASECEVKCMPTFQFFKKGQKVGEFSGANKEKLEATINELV
Test: ELISA on coated Trx1 (100 ng/well), antibody diluted 1/5 from 0.1 µM, fit with Prism

B1: monoclonal antibody B266-1 (antibody, V domains shown)
VH: EVQLQQSGAELVKPGASVKLSCTASGFNIKDTFMHWVKQRPEQGLEWIGRIDPANGNTKYDPKFQGKATITADTSSNTAYLQLSSLTSEDTAVYYCALLQYSAMDYWGQGTSVTVSS
VL: QIVLTQSPAIMSASPGEKVTMTCSASSRISYMYWYQQKPGTSPKRWIYDTSKLASGVPARFSGSGSGTSYSLTISTMEAEDAATYYCHQRSSYPTFGAGTKLELKS
Kd: 0.011 nM
